Molecular target: TcpK (Clostridium perfringens (plasmid pCW3), UniProt Q1PLI2 1-102)
Assay: fluorescence polarization; SPR: 10 mM HEPES pH 7.4, 200 mM NaCl, 3 mM EDTA, 0.05% Tween 20, 20 C; […]
Conditions: protein: recombinant; tags: N-terminal His6-TEV, cleaved; chain copies: 2; label: 5' Alexa488; blunt

B1: oriTmin23 Alexa488 (dsDNA)
DNA 1: AAGGAACTTTACAGGGAACTTTA
DNA 2: TAAAGTTCCCTGTAAAGTTCCTT
Question: How did the Kd turn out when B1 was run?
Answer: Its Kd is 590 nM.
